Columns and labels:
[1] = molecular target: human αVβ3 integrin, purified (human) (UniProt P06756); experiment: saturation ELISA on αvβ3-coated plate, n = 6
[2] = molecular target: human αvβ3 integrin on cells (human) (UniProt P06756); experiment: 125-I antibody saturation binding on M21 cells
[3] = molecular target: human αvβ3 integrin on cells (human) (UniProt P06756); experiment: 125-I antibody saturation binding on A375S2 cells

human αvβ3 integrin on cells (human), sequence (P06756 31-1048, chain 1 of 2): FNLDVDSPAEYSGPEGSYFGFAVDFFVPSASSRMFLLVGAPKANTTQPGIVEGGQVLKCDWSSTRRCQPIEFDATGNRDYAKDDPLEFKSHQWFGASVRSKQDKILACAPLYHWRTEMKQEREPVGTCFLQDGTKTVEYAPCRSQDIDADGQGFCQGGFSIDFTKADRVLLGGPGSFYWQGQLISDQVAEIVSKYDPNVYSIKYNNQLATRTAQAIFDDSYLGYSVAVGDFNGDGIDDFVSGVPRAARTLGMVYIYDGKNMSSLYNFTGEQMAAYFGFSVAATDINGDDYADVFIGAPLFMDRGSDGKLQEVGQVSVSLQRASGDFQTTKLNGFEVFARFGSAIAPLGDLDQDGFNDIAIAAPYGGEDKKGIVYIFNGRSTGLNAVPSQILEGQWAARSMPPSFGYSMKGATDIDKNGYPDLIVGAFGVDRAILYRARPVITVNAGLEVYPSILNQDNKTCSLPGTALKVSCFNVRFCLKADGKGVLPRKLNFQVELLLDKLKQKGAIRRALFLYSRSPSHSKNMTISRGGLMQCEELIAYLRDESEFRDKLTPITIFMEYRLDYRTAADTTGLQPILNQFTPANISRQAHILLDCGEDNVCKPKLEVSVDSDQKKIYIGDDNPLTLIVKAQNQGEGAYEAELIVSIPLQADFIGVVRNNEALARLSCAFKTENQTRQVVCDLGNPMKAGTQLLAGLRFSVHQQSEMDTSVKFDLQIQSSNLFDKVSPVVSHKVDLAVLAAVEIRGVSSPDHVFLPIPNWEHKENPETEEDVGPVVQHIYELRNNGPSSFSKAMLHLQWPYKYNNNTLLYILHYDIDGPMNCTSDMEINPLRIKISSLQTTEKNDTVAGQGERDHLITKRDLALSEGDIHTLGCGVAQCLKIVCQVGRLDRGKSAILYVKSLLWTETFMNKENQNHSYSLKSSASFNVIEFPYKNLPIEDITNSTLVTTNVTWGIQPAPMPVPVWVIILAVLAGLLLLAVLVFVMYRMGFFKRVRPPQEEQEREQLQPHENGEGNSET
human αvβ3 integrin on cells (human), sequence (P05106 27-788, chain 2 of 2, further chain): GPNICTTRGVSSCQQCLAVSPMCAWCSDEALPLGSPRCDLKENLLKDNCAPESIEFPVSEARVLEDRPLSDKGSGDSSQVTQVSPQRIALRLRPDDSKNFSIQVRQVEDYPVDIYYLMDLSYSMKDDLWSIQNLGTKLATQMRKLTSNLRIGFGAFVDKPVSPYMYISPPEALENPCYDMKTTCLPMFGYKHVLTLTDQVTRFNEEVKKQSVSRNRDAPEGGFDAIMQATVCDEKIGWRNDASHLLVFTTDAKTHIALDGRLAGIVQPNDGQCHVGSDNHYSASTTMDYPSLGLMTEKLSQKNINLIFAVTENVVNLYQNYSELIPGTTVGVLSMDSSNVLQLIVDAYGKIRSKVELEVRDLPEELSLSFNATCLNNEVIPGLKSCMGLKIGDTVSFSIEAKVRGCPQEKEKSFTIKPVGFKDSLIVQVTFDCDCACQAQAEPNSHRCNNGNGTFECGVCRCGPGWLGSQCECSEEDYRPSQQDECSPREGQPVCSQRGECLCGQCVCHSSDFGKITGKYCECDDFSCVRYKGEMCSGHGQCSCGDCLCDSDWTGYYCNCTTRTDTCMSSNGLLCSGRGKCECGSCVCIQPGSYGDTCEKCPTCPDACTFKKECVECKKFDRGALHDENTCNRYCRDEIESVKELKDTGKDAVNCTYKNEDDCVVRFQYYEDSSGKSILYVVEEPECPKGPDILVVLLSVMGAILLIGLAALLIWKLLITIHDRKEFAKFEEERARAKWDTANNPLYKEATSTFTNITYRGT
human αVβ3 integrin, purified (human), sequence (P06756 31-1048, form in doubt, chain 1 of 2): as the sequence (P06756 31-1048, chain 1 of 2) above
human αVβ3 integrin, purified (human), sequence (P05106 27-788, form in doubt, chain 2 of 2, further chain): as the sequence (P05106 27-788, chain 2 of 2, further chain) above

Kd [1]: 0.25 nM | Kd [2]: 10 nM | Receptors per cell (receptors per cell) [2]: 660000 | Kd [3]: 22 nM | Receptors per cell (receptors per cell) [3]: 370000
B1: abciximab (Fab, INN chains, looked up, V domains shown)
VH: EVQLQQSGTVLARPGASVKMSCEASGYTFTNYWMHWVKQRPGQGLEWIGAIYPGNSDTSYIQKFKGKAKLTAVTSTTSVYMELSSLTNEDSAVYYCTLYDGYYVFAYWGQGTLVTVSA
VL: EIVLTQSPVTLSVTPGDSVSLSCRASRDISNNLHWFQQTSHESPRLLIKYASQSMSGIPSRFSGSGSGTDFTLSINSVETEDFGMYFCQQTNSWPYTFGGGTKLEIK
modifications: Fab 125I label
